Reference: patent publication US20060275211A1

Molecular target: Tag5-161P2F10B, purified recombinant extracellular domain (ECD) of 161P2F10B (amino acids 46-875) (human) (UniProt O14638)
Test: SPR, MAb captured on CM5 chip, recombinant 161P2F10B 1-100 nM injected

Row | Kd | koff | kon | Binder
1 | 26 nM | 0.00083 s⁻¹ | 32000 M⁻¹ s⁻¹ | H16-1.29.1.1 (antibody, part only; not given: light chain, V domains shown, part only) VH: CRLVESGAEVKKPGASVKVSCKASGYTFTGYYMHWVRQAPGQGLEWMGWINPNSGGTNYAQKFQGRVTMTRDTSISTAYMELSRLRSDDTAVYYCARDQVDIVATRYYYYYYGMDVWGQGTTVTVSSASTKGPSVFPLAPSSKST
2 | 9.8 nM | 0.00036 s⁻¹ | 37000 M⁻¹ s⁻¹ | H16-1.92.1.1 (antibody, part only; not given: light chain, V domains shown, part only) VH: EVLLVESGPGLVKPSETLSLTCTVSGGSISSSSYFWGWIRQPPGKGLEWIGSIYYSGNTYYNPSLKSRVTISVDTSKNRFSLKLSSVTAADTAVYCCASATTVTTAFDIWGQGTMVTVSSASTKGPSVFPLAPSS
